In patent US20120164140A1:

Tests used:
Experiment in all cases: cell-based or functional assay
[1] = target: T1, BMP-2 (unlabeled) (UniProt P12643)
T1 sequence (looked up): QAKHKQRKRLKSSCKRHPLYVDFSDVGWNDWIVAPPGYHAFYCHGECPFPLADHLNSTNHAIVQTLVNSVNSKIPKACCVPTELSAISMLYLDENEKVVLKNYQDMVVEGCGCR

[2] = target: T2, BMP-4 (unlabeled) (UniProt P12644)
T2 sequence (looked up): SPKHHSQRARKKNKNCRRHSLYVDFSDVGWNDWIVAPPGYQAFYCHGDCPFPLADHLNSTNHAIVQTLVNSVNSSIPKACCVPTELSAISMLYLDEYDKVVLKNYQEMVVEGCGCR

[3] = target: BMP-5 (UniProt P22003)
[4] = target: BMP-6 (UniProt P22004)
Chain of UniProt P22004 (P22004 382-513 limits assumed): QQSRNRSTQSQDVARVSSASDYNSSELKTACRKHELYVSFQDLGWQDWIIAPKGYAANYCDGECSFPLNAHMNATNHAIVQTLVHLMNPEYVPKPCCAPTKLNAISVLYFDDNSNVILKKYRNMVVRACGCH

Chain of UniProt P22003 (P22003 317-454 limits assumed): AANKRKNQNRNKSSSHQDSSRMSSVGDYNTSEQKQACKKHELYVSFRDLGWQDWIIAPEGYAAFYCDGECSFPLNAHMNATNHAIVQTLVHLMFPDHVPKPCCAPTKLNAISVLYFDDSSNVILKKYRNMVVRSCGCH

decrease in hepcidin promoter activation (luciferase reporter, Hep3B cells) [1]: > 90%
decrease in hepcidin promoter activation (luciferase reporter, Hep3B cells) [2]: > 90%
decrease in hepcidin promoter activation (luciferase reporter, Hep3B cells) [3]: > 90%
decrease in hepcidin promoter activation (luciferase reporter, Hep3B cells) [4]: > 90%
Substance: purified soluble human hemojuvelin fused to the Fc portion of immunoglobulin (HJV.Fc) (Fc fusion)
